According to patent publication US9340579B2, “DPP-4 inhibitor” (NIPPI, INCORPORATED, priority 2011, dated 2016):
Where two headings read alike, the source gives them in different places. Each block holds one molecule with its values, some of them ahead of it. Square brackets hold non-standard residues; d marks the D form. Ends that are not written are not given here. Peptide text beside a SMILES is read from it. Hyp = O=C(O)[C@@H]1C[C@@H](O)CN1

Legend:
[1] = target: T1, DPP-4 (manufactured by Sigma, derived from porcine kidney) (Sus scrofa, UniProt P22411); assay: DPP-4 inhibition rate and IC50 measurement, fluorescence of AMC freed from Gly-Pro-MCA; type: biochemical; details: for inhibition at 350 µg/mL / Inhibition rate (%) at 0.35 mg/ml time: sample 0.35 mg/ml, substrate Gly-Pro-MCA, pH 7.5, 37° C.; for inhibition at 350 µg/mL: read-out: Inhibition rate (%) at 0.35 mg/ml time
T1 construct: derived from porcine kidney; purchased Sigma; host or cells: porcine kidney (tissue-derived)
Procedure: A sample liquid 35 μl obtained by dissolving a sample 1 mg in 50 mM tris-hydrochloric acid buffer (pH 7.5) 1 ml and DPP-4 (manufactured by Sigma, derived from porcine kidney; 8.6 mU/ml) 15 μl that had been dissolved in 50 mM tris-hydrochloric acid buffer (pH 7.5) were mixed in a microtiter plate well (manufactured by NUNC, trade name “237015”) and incubated at 37° C. for 10 minutes.
Thereto, 50 μl of a substrate solution (one obtained by dissolving glycyl-Pro-4-methylcoumarin-7-amide (Gly-Pro-MCA) in 50 mM tris-hydrochloric acid buffer (pH 7.5) so as to be 10 μM) that had in advance heated to and kept at 37° C. was added, mixed, and allowed to react at 37° C. for 20 minutes.
The fluorescence intensity of 7-amino-4-methylcoumarin (AMC) that was freed by DPP-4 was measured with time by a microplate reader type fluorescence detector (manufactured by Corona Electric Co., Ltd., trade name “SH-9000”). Note that the measurement wavelength was an excitation wavelength of 380 nm and a measurement wavelength of 460 nm. Note that one obtained by using the same amount of 50 mM tris-hydrochloric acid buffer (pH 7.5) in replace of the sample was used as a control; and the fluorescence intensity thereof was measured.
The activity of DPP-4 was expressed by an average gradient of change in the amount of the fluorescence intensity during the reaction time; and, as for DPP-4 inhibition rate, difference obtained by, with the control as 100%, subtracting the activity of the sample from the above-mentioned control was calculated as an inhibition rate (%).
In accordance with the above method of measuring a DPP-4 inhibition rate, sample concentration was changed between 0.001 and 7.2 μmol/ml to obtain the inhibition rate, thereby calculating the 50% inhibitory concentration (IC50 value) of the activity of DPP-4.

[2] = target: T2, DPP-4 (manufactured by Sigma, derived from porcine kidney) (porcine, UniProt P22411 38-766, limits assumed); assay: cell-based or functional assay
[3] = target: T2, DPP-4 (manufactured by Sigma, derived …); assay: cell-based or functional assay; remark: listed apart in the source
[4] = Table 1, sample concentration changed between 0.001 and 7.2 μmol/ml, read-out: IC50 value
[5] = Table 2, sample concentration changed between 0.001 and 7.2 μmol/ml, read-out: IC50 value
[6] = Table 1, sample concentration changed between 0.001 and 7.2 μmol/ml

T2 sequence (P22411 38-766 limits assumed): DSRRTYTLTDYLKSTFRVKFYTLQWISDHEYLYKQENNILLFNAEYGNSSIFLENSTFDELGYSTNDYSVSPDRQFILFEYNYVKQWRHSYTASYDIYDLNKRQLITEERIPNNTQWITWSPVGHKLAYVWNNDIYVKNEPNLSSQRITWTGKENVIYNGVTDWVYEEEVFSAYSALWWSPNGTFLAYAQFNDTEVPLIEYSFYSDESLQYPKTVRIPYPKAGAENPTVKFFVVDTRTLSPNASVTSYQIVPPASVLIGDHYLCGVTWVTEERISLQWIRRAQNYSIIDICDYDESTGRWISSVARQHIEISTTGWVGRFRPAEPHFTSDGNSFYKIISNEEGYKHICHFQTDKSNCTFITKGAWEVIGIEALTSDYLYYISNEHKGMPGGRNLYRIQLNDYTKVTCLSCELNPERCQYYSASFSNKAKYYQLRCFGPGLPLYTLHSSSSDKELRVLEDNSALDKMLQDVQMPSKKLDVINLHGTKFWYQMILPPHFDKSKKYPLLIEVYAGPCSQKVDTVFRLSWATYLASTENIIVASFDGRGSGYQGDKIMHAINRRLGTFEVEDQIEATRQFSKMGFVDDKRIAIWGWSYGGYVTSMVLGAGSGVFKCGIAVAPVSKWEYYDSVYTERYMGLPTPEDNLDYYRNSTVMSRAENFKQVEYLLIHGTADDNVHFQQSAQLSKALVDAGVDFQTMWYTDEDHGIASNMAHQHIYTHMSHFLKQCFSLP
T1 sequence (P22411 whole entry): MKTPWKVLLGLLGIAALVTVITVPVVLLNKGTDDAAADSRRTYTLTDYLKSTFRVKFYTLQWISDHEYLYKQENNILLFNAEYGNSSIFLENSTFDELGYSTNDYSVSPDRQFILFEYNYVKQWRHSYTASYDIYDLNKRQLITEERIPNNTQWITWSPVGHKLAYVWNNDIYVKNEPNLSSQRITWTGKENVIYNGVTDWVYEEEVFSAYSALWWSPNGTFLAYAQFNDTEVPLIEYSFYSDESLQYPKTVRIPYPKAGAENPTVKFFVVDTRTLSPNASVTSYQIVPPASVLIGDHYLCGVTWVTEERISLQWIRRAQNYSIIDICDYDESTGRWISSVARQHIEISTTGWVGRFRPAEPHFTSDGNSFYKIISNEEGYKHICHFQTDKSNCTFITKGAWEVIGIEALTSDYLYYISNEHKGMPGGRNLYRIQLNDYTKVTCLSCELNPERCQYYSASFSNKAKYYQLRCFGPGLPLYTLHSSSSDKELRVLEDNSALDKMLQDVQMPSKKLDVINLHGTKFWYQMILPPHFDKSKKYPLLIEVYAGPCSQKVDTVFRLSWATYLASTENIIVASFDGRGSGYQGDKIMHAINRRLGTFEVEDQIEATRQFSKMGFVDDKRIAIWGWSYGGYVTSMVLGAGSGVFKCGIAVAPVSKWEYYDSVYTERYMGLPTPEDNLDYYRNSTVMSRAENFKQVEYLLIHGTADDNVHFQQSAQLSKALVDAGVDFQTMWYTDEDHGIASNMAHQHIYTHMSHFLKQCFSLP

- IC50 [1, 4]: 70 µM
Molecule: C[C@H](NC(=O)[C@@H]1CCCN1C(=O)CN)C(=O)NCC(=O)N1CCC[C@H]1C(=O)N1C[C@H](O)C[C@H]1C(=O)O [Example 3, Gly-Pro-Ala-Gly-Pro-Hyp] (H-GPAGP[Hyp]-OH; N-terminus and C-terminus assumed)

- IC50 [1, 4]: 150 µM
Molecule: C[C@H](NC(=O)[C@@H]1CCCN1C(=O)CN)C(=O)NCC(=O)O [Example 9, Gly-Pro-Ala-Gly] (H-GPAG-OH; N-terminus and C-terminus assumed)

- inhibition at 350 µg/mL ([1]; Table 1): 42.5%
- IC50 [1, 4]: 3340 µM
Molecule: C[C@H](NC(=O)CN)C(=O)O [Example 11, Gly-Ala] (H-Gly-Ala-OH; N-terminus and C-terminus assumed)

- inhibition at 350 µg/mL ([1]; Table 2): 92.1%
- IC50 [1, 5]: 110 µM
Molecule: CC(C)C[C@H](N)C(=O)N1CCC[C@H]1C(=O)O [Example 16, Leu-Pro] (H-Leu-Pro-OH; N-terminus and C-terminus assumed)

- inhibition at 350 µg/mL ([1]; Table 2): 48.6%
Molecule: CC(C)C[C@H](N)C(=O)N1C[C@H](O)C[C@H]1C(=O)O [Example 20, Leu-Hyp] (H-Leu-[Hyp]-OH)

- inhibition at 350 µg/mL ([1]; Table 2): 89.3%
- IC50 [1, 5]: 130 µM
Molecule: CC(C)C[C@H](N)C(=O)N1C[C@H](O)C[C@H]1C(=O)NCC(=O)O [Example 21, Leu-Hyp-Gly] (H-Leu-[Hyp]-Gly-OH)

- inhibition at 350 µg/mL ([1]; Table 2): 71%
- IC50 [1, 5]: 500 µM
Molecule: CC[C@H](C)[C@H](N)C(=O)N1C[C@H](O)C[C@H]1C(=O)NCC(=O)O [Example 22, Ile-Hyp-Gly] (H-Ile-[Hyp]-Gly-OH; N-terminus and C-terminus assumed)

- inhibition at 350 µg/mL ([1]; Table 2): 52.1%
- IC50 [1, 5]: 830 µM
Molecule: CC(C)C[C@H](N)C(=O)N1C[C@H](O)C[C@H]1C(=O)NCC(=O)N1CCC[C@H]1C(=O)N[C@@H](C)C(=O)O [Example 23, Leu-Hyp-Gly-Pro-Ala] (H-L[Hyp]GPA-OH)

- inhibition at 350 µg/mL ([1]; Table 2): 27.2%
- IC50 [1, 5]: 4640 µM
Molecule: O=C(O)CNC(=O)[C@@H]1C[C@@H](O)CN1C(=O)[C@@H]1CCCN1 [Example 24, Pro-Hyp-Gly] (H-Pro-[Hyp]-Gly-OH; N-terminus and C-terminus assumed)

- inhibition at 350 µg/mL ([1]; Table 2): 14.6%
- IC50 [1, 5]: 9450 µM
Molecule: C[C@H](N)C(=O)N1C[C@H](O)C[C@H]1C(=O)NCC(=O)O [Example 25, Ala-Hyp-Gly] (H-Ala-[Hyp]-Gly-OH; N-terminus and C-terminus assumed)

- inhibition at 350 µg/mL ([1]; Table 1): 71.5%
- IC50 [1, 4]: 285 µM
Molecule: GAIGPA [Example 12, Gly-Ala-Ile-Gly-Pro-Ala]

- inhibition at 350 µg/mL ([1]; Table 1): 70.4%
- IC50 [1, 4]: 314 µM
Molecule: GAIGPS [Example 13, Gly-Ala-Ile-Gly-Pro-Ser]

- inhibition at 350 µg/mL ([1]; Table 1): 40.9%
- IC50 [1, 4]: 1200 µM
Molecule: GAVGP [Example 15, Gly-Ala-Val-Gly-Pro]

- inhibition at 350 µg/mL ([1]; Table 1): 63.7%
- IC50 [1, 4]: 437 µM
Molecule: GAVGPA [Example 14, Gly-Ala-Val-Gly-Pro-Ala]

- IC50 [1, 4]: 50 µM
Molecule: GPAGPI [Example 4, Gly-Pro-Ala-Gly-Pro-Ile]

- IC50 [1, 4]: 80 µM
Molecule: GPAGPR [Example 2, Gly-Pro-Ala-Gly-Pro-Arg]

Molecule: GPIGPV [Example 6, Gly-Pro-Ile-Gly-Pro-Val]
- IC50 [1]: 9.3 µM

- IC50 [1, 4]: 24 µM
Molecule: GPLGPV [Example 5, Gly-Pro-Leu-Gly-Pro-Val]

- Inhibition rate (%) at 0.35 mg/ml time ([1]; Table 1): 0%
- IC50 value [1, 6]: No inhibitory
Molecule: Gly-Ala-Hyp (Gly-Ala-[Hyp]) [compound 2, reference compound]

- Inhibition rate (%) at 0.35 mg/ml time ([1]; Table 1): 0%
- IC50 value [1, 6]: No inhibitory
Molecule: Gly-Pro-Hyp (Gly-Pro-[Hyp]) [Comparative Example 1, reference compound]

- inhibition at 350 µg/mL ([1]; Table 1): 95.8%
- IC50 [1, 4]: 60 µM
Molecule: H-GPAGP-OH [Example 1, Gly-Pro-Ala-Gly-Pro]

- inhibition at 350 µg/mL ([1]; Table 2): 94.9%
- IC50 [1, 5]: 63 µM
Molecule: LPGPA [Example 18, Leu-Pro-Gly-Pro-Ala]

- IC50 value [2]: 9450 µM
- Inhibition rate (%) at 0.35 mg/ml time [2]: 14.6%
B1: Ala-Hyp-Gly (peptide)
peptide: Ala-[Hyp]-Gly

- IC50 value [3]: 3340 µM
- Inhibition rate (%) at 0.35 mg/ml time [3]: 42.5%
B2: Gly-Ala (peptide)
peptide: GA

- IC50 value [2]: 830 µM
- Inhibition rate (%) at 0.35 mg/ml time [2]: 52.1%
B3: Leu-Hyp-Gly-Pro-Ala (peptide)
peptide: L[Hyp]GPA

- IC50 value [3]: 78200 µM
- Inhibition rate (%) at 0.35 mg/ml time [3]: 10.2%
B4: Gly-Pro-Pro (peptide)
peptide: GPP

- IC50 value [3]: 70 µM
B5: Gly-Pro-Ala-Gly-Pro-Hyp (peptide)
peptide: GPAGP[Hyp]

- IC50 value [3]: 194 µM
- Inhibition rate (%) at 0.35 mg/ml time [3]: 86.4%
B6: Gly-Pro-Glu (peptide)
peptide: GPE

- IC50 value [2]: 110 µM
- Inhibition rate (%) at 0.35 mg/ml time [2]: 92.1%
B7: Leu-Pro (peptide)
peptide: LP

- IC50 value [3]: 310 µM
- Inhibition rate (%) at 0.35 mg/ml time [3]: 80.2%
B8: Gly-Pro-Gln (peptide)
peptide: GPQ

- IC50 value [3]: 437 µM
- Inhibition rate (%) at 0.35 mg/ml time [3]: 63.7%
B9: Gly-Ala-Val-Gly-Pro-Ala (peptide)
peptide: GAVGPA

- IC50 value [2]: 30 µM
- Inhibition rate (%) at 0.35 mg/ml time [2]: 98.7%
B10: Ala-Pro-Gly (peptide)
peptide: APG

- IC50 value [3]: 150 µM
B11: Gly-Pro-Ala-Gly (peptide)
peptide: GPAG

- IC50 value [3]: 80 µM
B12: Gly-Pro-Ala-Gly-Pro-Arg (peptide)
peptide: GPAGPR

- IC50 value [3]: 285 µM
- Inhibition rate (%) at 0.35 mg/ml time [3]: 71.5%
B13: Gly-Ala-Ile-Gly-Pro-Ala (peptide)
peptide: GAIGPA

- IC50 value [3]: 1200 µM
- Inhibition rate (%) at 0.35 mg/ml time [3]: 40.9%
B14: Gly-Ala-Val-Gly-Pro (peptide)
peptide: GAVGP

- IC50 value [3]: 50 µM
B15: Gly-Pro-Ala-Gly-Pro-Ile (peptide)
peptide: GPAGPI

- IC50 value [3]: 9.3 µM
B16: Gly-Pro-Ile-Gly-Pro-Val (peptide)
peptide: GPIGPV

- IC50 value [2]: 500 µM
- Inhibition rate (%) at 0.35 mg/ml time [2]: 71%
B17: Ile-Hyp-Gly (peptide)
peptide: Ile-[Hyp]-Gly

- Inhibition rate (%) at 0.35 mg/ml time [2]: 0%
B18: Phe-Hyp (peptide)
peptide: Phe-[Hyp]

- IC50 value [3]: 60 µM
- Inhibition rate (%) at 0.35 mg/ml time [3]: 95.8%
B19: Gly-Pro-Ala-Gly-Pro (peptide)
peptide: GPAGP

- IC50 value [2]: 130 µM
- Inhibition rate (%) at 0.35 mg/ml time [2]: 89.3%
B20: Leu-Hyp-Gly (peptide)
peptide: Leu-[Hyp]-Gly

- IC50 value [3]: 370 µM
- Inhibition rate (%) at 0.35 mg/ml time [3]: 76.5%
B21: Gly-Pro-Val (peptide)
peptide: GPV

- IC50 value [2]: 1320 µM
- Inhibition rate (%) at 0.35 mg/ml time [2]: 48.6%
B22: Leu-Hyp (peptide)
peptide: Leu-[Hyp]

- Inhibition rate (%) at 0.35 mg/ml time [3]: 0%
B23: Gly-Ala-Hyp (peptide)
peptide: Gly-Ala-[Hyp]

- IC50 value [2]: 50 µM
B24: Leu-Pro-Gly (peptide)
peptide: LPG

- IC50 value [3]: 314 µM
- Inhibition rate (%) at 0.35 mg/ml time [3]: 70.4%
B25: Gly-Ala-Ile-Gly-Pro-Ser (peptide)
peptide: GAIGPS

- IC50 value [2]: 4640 µM
- Inhibition rate (%) at 0.35 mg/ml time [2]: 27.2%
B26: Pro-Hyp-Gly (peptide)
peptide: Pro-[Hyp]-Gly

- Inhibition rate (%) at 0.35 mg/ml time [3]: 0%
B27: Gly-Pro-Hyp (peptide)
peptide: Gly-Pro-[Hyp]

- IC50 value [2]: 63 µM
- Inhibition rate (%) at 0.35 mg/ml time [2]: 94.9%
B28: Leu-Pro-Gly-Pro-Ala (peptide)
peptide: LPGPA

- IC50 value [3]: 24 µM
B29: Gly-Pro-Leu-Gly-Pro-Val (peptide)
peptide: GPLGPV
